Test results as given in publication PMC7644731.

What was measured:
Experiment in all cases: double-filter binding
Mini-Ph = settings: apparent Kd, n=10; Filter binding: 60 mM KCl, 12 mM Hepes pH 7.9, 0.24 mM EDTA, 4% glycerol, 0.02 nM probe, 1 h at room temperature
Mini-PhΔSAM = settings: apparent Kd, n=4; Filter binding: 60 mM KCl, 12 mM Hepes pH 7.9, 0.24 mM EDTA, 4% glycerol, 0.02 nM probe, 1 h at room temperature
Mini-Ph-ML = settings: apparent Kd, n=3; Filter binding: 60 mM KCl, 12 mM Hepes pH 7.9, 0.24 mM EDTA, 4% glycerol, 0.02 nM probe, 1 h at room temperature
Mini-Ph EH = settings: apparent Kd, n=5; Filter binding: 60 mM KCl, 12 mM Hepes pH 7.9, 0.24 mM EDTA, 4% glycerol, 0.02 nM probe, 1 h at room temperature

With 150-bp DNA probe as the substance, how does the Kd (Mini-Ph) read?
The Kd was 37 nM.

What about the Kd (Mini-PhΔSAM) of the same substance?
The Kd was 990 nM.

And the Kd (Mini-Ph-ML)?
Its Kd is 190 nM.

And the Kd (Mini-Ph EH)?
Its Kd is 706 nM.
